Test results published in patent US9932382B2, “Kv2.1 channel-derived peptides and methods of use” (University of Pittsburgh—Of the Commonwealth System of …, priority 2014, dated 2018).

Assays:
[1] = biological target: T1, human syntaxin (Homo sapiens, UniProt Q16623); experiment: Far-Western analysis of syntaxin binding to SPOT peptide arrays; conditions: for syntaxin binding to spotted peptide (fluorescence intensity): 15-mer peptides on PVDF membrane, human syntaxin over-expressing CHO cell lysate, four arrays; for syntaxin binding inferred from the overlapping peptide array: sequence deduced from or picked out of the 15-mer array, not spotted itself
T1 construct: expressed in transfected cells; host or cells: CHO cells (lysate)
Method: FIG. 8: Binding of Kv2.1 peptides to syntaxin. The 76 overlapping Kv2.1 peptides were spot-plated as an array onto a polyvinylidene fluoride membrane using the SPOTS-synthesis method. Membranes were incubated with a human syntaxin over-expressing CHO cell lysate and a far-Western analysis of syntaxin binding to the peptide arrays was performed using a commercially available syntaxin antibody and fluorescently tagged secondary antibody. Fluorescence intensity was quantified as an index of syntaxin binding to the spot array. Bars represent the mean+/−SEM of binding in four independent arrays. […]

[2] = biological target: T2, Kv2.1/syntaxin binding (Homo sapiens, UniProt Q16623); experiment: Co-immunoprecipitation of Kv2.1 with syntaxin from transfected CHO cells; assay type: cell-based; conditions: for effect on Kv2.1/syntaxin binding (co-immunoprecipitation): syntaxin-expressing CHO cells co-transfected with Kv2.1 and peptide plasmid, syntaxin immunoprecipitates probed for Kv2.1
T2 construct: expressed in transfected cells; host or cells: CHO cells
Method: For electrophysiological experiments, mixed cortical neuronal/glial cultures were prepared from embryonic day 16 (E16) Sprague-Dawley rats (Charles River Laboratories, Wilmington, Mass., USA). Donor rats were euthanized by gradual CO2 exposure. Cortices were dissociated with trypsin, and the resultant cell suspension, adjusted to 670,000 cells per well, was plated on glass coverslips in 6-well plates as described previously (Hartnett et al., J Neurochem 68, 1836-1845, 1997). Non-neuronal cell proliferation was inhibited after two weeks in culture with 1-2 μM cytosine arabinoside, and cultures utilized at three to four weeks in vitro. For neuronal transfection, cells were treated for five hours in serum-free medium with 2 μL LIPOFECTAMINE™ 2000 (Invitrogen, Carlsbad, Calif.), 50 μL Optimem (GIBCO, Grand Island, N.Y.), and 1.5 μg DNA per well. For CHO cell transfections, cells were plated on coverslips in 24-well plates at a density of 5.6×10^4 cells per well for electrophysiological measurements or in 100 mm dishes at a density of 1.7×10^6 cells per dish for biochemical studies. Cells were treated for 3-4 hours in serum-free medium with a total of 1.2 μL LIPOFECTAMINE™ and 0.28 μg DNA per well for electrophysiology, or 55.1 μL LIPOFECTAMINE™ and 7.33 μg DNA per dish for biochemistry. Following transfection, cells were maintained in F12 medium containing fetal bovine serum at 37° C., 5% CO2 for 24 hours prior to experimentation.
Protein was harvested by washing cell culture dishes with ice cold PBS followed by a short incubation with 1% 3-[(3-cholamidopropyl) dimethylammonio]-1-propanesulfonate buffer. Protein A/G agarose bead slurry (Santa Cruz, Dallas, Tex.) was added to the samples and rocked at 4° C. for 1 hour in order to pre-clear non-specific protein binding. Samples were then incubated overnight at 4° C. with the appropriate immunoprecipitating antibodies. Following another incubation with the bead slurry, the protein samples were prepared/denatured by the addition of sample preparation buffer (625 mM Tris, 25% glycerol, 2% sodium dodecyl sulfate (SDS), 0.01% bromophenol blue and 5% β-mercaptoethanol) and heated at 95° C. for 5 min prior to SDS polyacrylamide gel electrophoresis and immunoblotting.
Protein samples from equal amounts of cell lysate were separated on 10% sodium dodecyl sulfate SDS polyacrylamide gels by electrophoresis using the Mini Protean 3 System (Bio-Rad, Hercules, Calif.). Separated protein bands were transferred onto 0.2 μm nitrocellulose membranes (Bio-Rad), blocked with 1% bovine serum albumin (BSA) in PBS with 0.05% Tween 20 (PBST) at room temperature for 1 hour, and probed with appropriate primary antibodies diluted in PBST. Blots were then incubated with infrared fluorescent goat secondary antibodies at room temperature for 1 hour, visualized using the Odyssey Imaging System (LI-COR Biosciences, Lincoln, Nebr.), and quantified using infrared fluorimetry.
After establishing that C1a effectively precluded the oxidant-induced K^+ current increase in neurons, studies were performed to identify the sub-domains within C1a that could retain the ability to disrupt Kv2.1/syntaxin binding. C1a was divided into overlapping proximal and distal segments, hereafter referred to as C1a411-472 and C1a441-522, respectively. Co-immunoprecipitation experiments were performed to compare the ability of C1a and the smaller segments to displace Kv2.1 from syntaxin. Syntaxin immunoprecipitates of protein samples obtained from CHO cells transfected with a syntaxin-expressing plasmid, and co-transfected with Kv2.1 together with C1a, C1a411-472, or C1a441-522, were probed for Kv2.1.

T2 sequence (Q16623 whole entry): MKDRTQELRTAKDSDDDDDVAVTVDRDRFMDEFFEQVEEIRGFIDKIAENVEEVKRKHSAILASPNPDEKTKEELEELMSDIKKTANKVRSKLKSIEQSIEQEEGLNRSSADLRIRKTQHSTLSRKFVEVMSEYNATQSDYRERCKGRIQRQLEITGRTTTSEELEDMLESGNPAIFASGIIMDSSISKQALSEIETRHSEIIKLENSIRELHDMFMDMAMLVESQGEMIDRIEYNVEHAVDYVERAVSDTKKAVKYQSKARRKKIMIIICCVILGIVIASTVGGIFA
T1 sequence (Q16623 whole entry): as above

| syntaxin binding inferred from the overlapping peptide array [1] | Molecule | syntaxin binding to spotted peptide (fluorescence intensity) [1] | effect on Kv2.1/syntaxin binding (co-immunoprecipitation) [2] | further results |
| --- | --- | --- | --- | --- |
| represents the syntaxin-binding domain | HLSPNKWKW (listed as Rattus norvegicus) |  |  |  |
| non-syntaxin-binding | DIVVEEKNGE (DIVVEKNGE; listed as Rattus norvegicus) [reference compound] |  |  |  |

The next lines start with the molecule.

| Molecule | syntaxin binding inferred from the overlapping peptide array [1] | syntaxin binding to spotted peptide (fluorescence intensity) [1] | effect on Kv2.1/syntaxin binding (co-immunoprecipitation) [2] | further results |
| --- | --- | --- | --- | --- |
| peptide #28: 15-mer, residues 478-492 of SEQ ID NO: 3 (HLSPNKWKWTKRALS; listed as Rattus norvegicus) |  | final peptide showing substantial binding |  |  |
| C1a441-472: overlapping middle segment of C1a, residues 441-472 of rat Kv2.1 (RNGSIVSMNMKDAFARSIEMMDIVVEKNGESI; UniProt P15387 441-472, looked up, fragment) |  |  | had no effect on syntaxin's ability to bind to Kv2.1 | mean±SEM ratio of Kv2.1 to syntaxin immunoblots ([2]; CHO cells, n=3, baseline=0.24±0.08): 0.25±0.1 |
| peptide #22: 15-mer, residues 472-486 of SEQ ID NO: 3 (DKVQDNHLSPNKWKW; listed as Rattus norvegicus) |  | initial peptide showing substantial binding |  |  |
| C1a411-472: proximal segment of C1a, residues 411-472 of rat Kv2.1 (protein, UniProt P15387 411-472, looked up, fragment) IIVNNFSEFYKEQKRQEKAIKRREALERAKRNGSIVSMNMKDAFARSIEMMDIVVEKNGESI |  |  | did not |  |
